Experimental findings from patent US20120277143A1 (Janssen / Centocor, published 2012) are described below.

For test [1], the target named is T1, murine IL4 (mouse, UniProt P07750 21-140).
T1 sequence (looked up): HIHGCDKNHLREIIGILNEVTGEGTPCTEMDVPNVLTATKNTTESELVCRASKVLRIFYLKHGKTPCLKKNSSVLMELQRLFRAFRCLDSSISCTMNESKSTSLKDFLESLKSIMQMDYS
The test is described as follows: cell-based or functional assay.

Test [2] concerns the target T2, murine IL13 (mouse, UniProt P20109 21-131, limits assumed).
T2 sequence (looked up): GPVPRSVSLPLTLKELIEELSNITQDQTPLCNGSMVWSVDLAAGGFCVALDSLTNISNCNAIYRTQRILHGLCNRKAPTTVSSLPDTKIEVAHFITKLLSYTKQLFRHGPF
The test is described as follows: cell-based or functional assay.

Test [3] deals with T3, human IL4 (human, UniProt P05112 25-153, biotinylated in the SPR and competition assays (sites not given)).
T3 sequence: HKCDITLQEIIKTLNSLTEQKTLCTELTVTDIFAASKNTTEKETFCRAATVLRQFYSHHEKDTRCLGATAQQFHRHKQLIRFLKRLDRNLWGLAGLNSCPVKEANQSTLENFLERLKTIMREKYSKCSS
The test is described as follows: cell-based or functional assay.

Test [4] deals with T3, human IL4. The test is described as follows: cell-based or functional assay. This is another data set of the same source.
Test [5] concerns the target T3, human IL4. The test is described as follows: SPR ProteOn, biotin-IL4 on neutravidin chip, 1:1 fit. Here is the method: Purified binders selected as “hits” were ranked by their affinity on a ProteOn XPR-36 instrument (Bio-Rad). ProteOn is an optical biosensor instrument that measures protein-protein interactions in real time, based on Surface Plasmon Resonance technology similar to Biacore (GE). A rapid experimental protocol was performed as follows: On a GLC sensor chip (Bio-Rad), Neutravidin (Thermo Scientific) was covalently immobilized to a density of >5000 RU using amine coupling chemistry as described by the manufacturer. On one flow cell, biotinylated IL4 (Peprotech) was immobilized to a level of 250 RU, while another flow cell was used as reference, with neutravidin immobilized only. […] The retrieved values were used to rank the AR proteins by their affinity.

The target in test [6] is T3, human IL4. As to the kind of experiment: Luminex competition, 67 pM biotin-IL4 binding to IL4RA-Fc beads. As for the experimental part:
For biotinylation of IL4, recombinant human IL4 (Peprotech) was biotinylated at a 4:1 ratio using EZ-Link NHS-LC-Biotin (Pierce, #21336) for 2 hours at RT. The protein was dialyzed in PBS overnight to remove excess biotinylation reagent. Competition binding for cynomologous IL4 (SEQ ID NO: 5) was performed using the isolated protein biotinylated in the same manner.
AR protein inhibition of IL4 binding to IL4 RA was assessed using IL4 RA-Fc (R&D Systems), comprising the Gly24-His232 which represents the ECD (SEQ ID NO: 5) fused to a human IgGl-Fc and therefor a disulfide linked homodimer. The protein was conjugated to carboxylated Luminex microspheres according to the manufacturer's protocol. For neutralization experiments, 5000 IL4RA-Fc conjugated beads in 50 μl were added to each well of a 96-well filter plate (Millipore). Biotinylated human IL4 was mixed with an appropriate dilution of AR protein in Luminex Assay Buffer (PBS, 1% BSA, pH 7.4) to give a final concentration of 67 pM IL4. The plate was incubated for 1 hour at RT in the dark on a plate shaker, set to shake vigorously to avoid bead aggregation. The plate was washed twice with 150 μl of wash buffer (PBS, 0.1% BSA, pH 7.4, 0.05% Tween-20) using a vacuum manifold followed by the addition of 50 μl of Streptavidin PE at 25 μg/ml and incubated at RT for 20 minutes. The plates were washed again and 150 μl of sheath fluid was added and the plate was placed on the shaker for 5 minute. Plates were read using a Luminex® 100 system; data were plotted as a function of AR protein concentration. IC₅₀ values were determined by fitting the data to the equation for sigmoidal dose response using PRISM software (GraphPAD PRISM) (Table 6).

Test [7] addresses T3, human IL4. The test is described as follows: cell-based or functional assay. The source holds these as a separate data set.
The target of test [8] is T3, human IL4. The test is described as follows: binding to recombinant IL4; kinetic method not restated.
Test [9] has as its target T1, murine IL4. As to the kind of experiment: affinity for mIL4, method and numbers not given.

For orientation: Kd means the free concentration of one partner at which half of the binding sites on the other are occupied at equilibrium, for simple one-to-one binding. As usually defined, the koff is a measure of how fast the partners let go of each other. High values mean a short-lived complex, low ones a long-lived complex. A word on the kon: it is the second-order rate constant of association. What is called IC50 is the point on the concentration scale where inhibition reaches its midpoint.

B1: 11G11-21H2 (designed binder)
chain: MRGSHHHHHHGSDLGKKLMEAARAGQDDEVRILMANGADVNAKDLFGITPLHLAAVYGHLEIVEVLLKHGADVNATDNWGSTPLHLAAQFGHLEIVEVLLKYGADVNAQDKFGKTAFDISIDNGNEDLAEILQKLGGGGSGGGGSGGGGSGGGGSRSDLGEKLLEAARAGQDDEVRILMANGADVNAYDDDGMTPLHLAAKSGHLEIVEVLLKHGADVNAMDITGSAPLHLAADLGHLEIVEVLLKHGADVNAIDYLGATPLHLAATYGHPEIVEVLLKYGADVNAQDKFGKTAFDISIDNGNEDLAEILQKLN
B1: the “IC50 (read off the curve); IL4 dependent HT2 proliferation assay, retentate sample (diamonds, solid line)” value in test [1] is ~40 pM. For the same molecule, in [2], the “IC50 (read off the curve); IL13 STAT6 activation assay, aerosolized sample (triangles)” value is ~2000 pM; the “IC50 (read off the curve); IL13 STAT6 activation assay, pre-nebulization sample (squares)” value was ~1000 pM; the “IC50 (read off the curve); IL13 STAT6 activation assay, retentate sample (diamonds)” value was ~1000 pM.

B2: C06_28E5 (designed binder)
chain: DLGKKLLEAARAGQDDEVRILMANGADVNAADDSGITPLHLAAEDGHLEIVEVLLKYGADVNAQDNLGDTPLHLAAWTGHLEIVEVLLKNGADVNAYDISGITPLHLAAFYGHLEIVEVLLKHGADVNAQDKFGKTAFDISIDNGNEDLAEILQKLN
notes: ankyrin repeat protein; His-tagged, IMAC-purified; also called benchmark AR protein
With B2, in test [3], the “inhibition of STAT6 (HEK-STAT6 cells), IC50” value stood at 3 pM. Also, in test [4], the “A549 TARC Inhibition IC50” value is 174 pM, the “HEK Stat6 Inhibition IC50” value amounted to 1.4 pM and the “Type 1 Complex inhibition IC50” value was found to be 1.5 pM. In test [5], this molecule registered a Kd of 50 pM, a koff of 4.61e-05 s⁻¹ and a kon of 922000 M⁻¹ s⁻¹. Further, the IC50 in test [6] is 10.2 pM.

B3: C06_44C12v2 (designed binder)
chain: DLGKKLLEAASAGQDDEVHILMANGADVNALDDSGYTPLHLAAEDGHLEIVEVLLKHGADVNAADRLGDTPLHLAAFVGHLEIVEVLLKAGADVNAVDLAGVTPLHVAAFYGHLEIVEVLLKAGADVNAQDKFGKTAFDISIDNGNEDLAEILQKLN
In the case of B3, the “IC50 STAT6” value in test [7] turned out to be 6.9 pM. Besides, the Kd in test [8] worked out at 1.6 pM.

B4: C06_53G6v1 (designed binder)
chain: DLGKKLLEAARAGQDDEVRILMANGADVNATDDWGDTLLHLAATDGHLEIVEVLLKAGADVNANDAIGDTPLHLAALYGHLEIVEVLLKYGADVNATDLHGFTPLHLAAFWGHLEIVEVLLKHGADVNAQDKFGKTAFDISIDNGNEDLAEILQKLN
On to B4, for which, in test [7], the “IC50 STAT6” value was found to be 1.4 pM. For the same molecule, the Kd in test [8] came to 1.8 pM.

B5: C06-21H2 (designed binder)
chain: DLGEKLLEAARAGQDDEVRILMANGADVNAYDDDGMTPLHLAAKSGHLEIVEVLLKHGADVNAMDITGSAPLHLAADLGHLEIVEVLLKHGADVNAIDYLGATPLHLAATYGHPEIVEVLLKYGADVNAQDKFGKTAFDISIDNGNEDLAEILQKLN
As to B5, the binding result in test [9] is “binds”.
